Assay in all cases: affinity purification with mass spectrometry; HA-tagged TgWIP variants pulled down by the HA tag from lysates of DC2.4 cells infected 4 h at MOI 7; host partners by mass spectrometry; values are negative fold changes in peptide counts of the mutant immunoprecipitations relative to TgWIP^WT
In test [1] the target is TgWIP^(WIRS mut), HA-tagged (Toxoplasma gondii).
Test [2] concerns the target TgWIP^Y150A/Y199A, HA-tagged (Toxoplasma gondii).
Test [3] addresses TgWIP^(PRR2 mut), HA-tagged (Toxoplasma gondii).
Test [4] concerns the target TgWIP^(PRR3 mut), HA-tagged (Toxoplasma gondii).

“And” between values parts separate entries of the source, which are not always exact repeats. Equal values may be shown once.

B1: Arhgef6, endogenous in murine DC2.4 cells (natural protein)
chain: MNPEERLVTWLISLGVLESPKKTVCDPEEFLKSSLKNGVVLCKLINRLLPGSVEKYCLEPQTEADCIDNINDFLKGCATLQVEVFEPDDLYSGANFSKVLNTLLAVNKATEDQLSERPCGRSSSLSAATSSQTNPQVAVPSTAPEQHSEEKAEMTENGSHQLIVKARFNFKQTNEDELSVCKGDIIYVTRVEEGGWWEGTLNGRTGWFPSNYVREIKPSERPLSPKAIKGFDTAPLTKNYYTVVLQNILDTEKEYAKELQSLLVTYLRPLQSNNNLSTVEFTCLLGNFEEVCTFQQTLCQALEECSKFPENQHKVGGCLLNLMPHFKSMYLAYCANHPSAVNVLTQHSDDLERFMENQGASSPGILILTTSLSKPFMRLEKYVTLLQELERHMEDTHPDHQDILKAIIAFKTLMGQCQDLRKRKQLELQILSEPIQAWEGDDIKTLGNVIFMSQVVMQHGACEEKEERYFLLFSSVLIMLSASPRMSGFMYQGKIPIAGMVVNRLDEIEGSDCMFEITGSTVERIVVHCNNNQDFQEWMEQLNRLTKGPTSCGSLSKTSSSSCSTHSSFSSTGQPRGPLEPPQIIKPWSLSCLRPAPPLRPSAALGYKERMSYILKESSKSPKTMKKFLHKRKTERKASEEEYVIRKSTAALEEDAQILKVIEAYCTSASFQQGTRKDSVPQVLLPEEEKLIIEETRSNGQTIIEEKSLVDTVYALKDEVKELKQENKKMKQCLEEELKSRKDLEKLVRKLLKQTDECIRSESSSKTSILQ
In the case of B1, the negative fold change in peptide counts relative to TgWIP^WT worked out at 2 fold in test [1], 2 fold in test [2], 3 fold in test [3] and 7 fold in test [4].

B2: Sorbs1 (Cap), endogenous in murine DC2.4 cells (natural protein)
chain: MSSECDVGSSKAVVNGLASGNHGPDKDMDPTKICTGKGTVTLRASSSYRGTPSSSPVSPQESPKHESKSGLEPEDPSADEWKLSSSADTNGNAQPSPLAAKGYRSVHPSLSADKPQGSPLLNEVSSSHIETDSQDFPPTSRPSSAYPSTTIVNPTIVLLQHNRDPASERRAGEQDPVPTPAELTSPGRASERRAKDASRRVVRSAQDLSDVSTDEVGIPLRNTERSKDWYKTMFKQIHKLNRDDDSDVHSPRYSFSDDTKSPLSVPRSKSEMNYIEGEKVVKRSATLPLPARSSSLKSSPERNDWEPLDKKVDTRKYRAEPKSIYEYQPGKSSVLTNEKMSRDISPEEIDLKNEPWYKFFSELEFGRPTNLEKDLSFCQAELEADLEKVETVNKSPSANSPQSSAVSPTPDITSEPPGYIYSSNFHAVKRESDGTPGGLASLENERQIYKSVLEGGDIPLQGLSGLKRPSSSASTKVDRKGGNAHMISSSSVHSRTFHTSNALGPGCKHKKPLSAAKACISEILPSKFKPRLSAPSALLQEQKSVLLPSEKAQSCENLCVSLNDSKRGLPLRVGGSIENLLMRSRRDYDSKSSSTMSLQEYGTSSRRPCPLSRKAGLHFSMFYRDMHQINRAGLSLGSISSSSVRDLASHFERSSLTLARGELGASQEGSEHIPKHTVSSRITAFEQLIQRSRSMPSLDFSGRLSKSPTPVLSRSGLTSARSAESLLESTKLRPREMDGMDSGGVYASPTCSNMADHALSFRSLVPSEPLSICSDELDHCSNVSNDSREGSGGSVHGDFPKHRLNKCKGTCPASYTRFTTIRKHEQQSSRQSDWRSDSRGDKNSLLRNIHLMSPLPFRLKKPLQQHPRQPPPSDSSESPAGQKADLPCHDPQDQPHSAGKPQVPTRLSSRHTMARLSHNSEPPLDRPAGLEDCTRAINNGNPVPYSDHGLDRNNNPQSELAAAHGDSESPRHFIPADYLESTEEFIRRRHDDKEKLLADQRRLKREQEEADIAARRHTGVIPTHHQFITNERFGDLLNIDDTAKRKSGLEMRPARAKFDFKAQTLKELPLQKGDVVYIYRQIDQNWYEGEHHGRVGIFPRTYIELLPPAEKAQPRKLAPVQVLEYGEAIAKFNFNGDTQVEMSFRKGERITLLRQVDENWYEGRIPGTSRQGIFPITYVDVLKRPLVKTPVDYIDLPYSSSPSRSATVSPQQPQAQQRRVTPDRSQPSLDLCSYQALYSYVPQNDDELELRDGDIVDVMEKCDDGWFVGTSRRTRQFGTFPGNYVKPLYL
In the case of B2, the negative fold change in peptide counts relative to TgWIP^WT in test [1] was determined as 2 fold; in test [2], 1 fold; in test [3], 14 fold; in test [4], 30 fold.

B3: Sh3rf1, endogenous in murine DC2.4 cells (natural protein)
chain: MDESALLDLLECPVCLERLDASAKVLPCQHTFCKRCLLGIVGSRNELRCPECRTLVGSGVDELPSNILLVRLLDGIKQRPWKPGPGGGGGTTCTNTLRAQGSTVVNCGSKDLQSSQCGQQPRVQAWSPPVRGIPQLPCAKALYNYEGKEPGDLKFSKGDIIILRRQVDENWYHGEVSGVHGFFPTNFVQIIKPLPQPPPQCKALYDFEVKDKEADKDCLPFAKDDVLTVIRRVDENWAEGMLADKIGIFPISYVEFNSAAKQLIEWDKPPVPGVDTAECPSATAQSTSASKHPDTKKNTRKRHSFTSLTMANKSSQGSQNRHSMEISPPVLISSSNPTAAARISELSGLSCSAPSQVHISTTGLIVTPPPSSPVTTGPAFTFPSDVPYQAALGSMNPPLPPPPLLAATVLASTPSGATAAVAAAAAAAAAAGMGPRPVMGSSEQIAHLRPQTRPSVYVAIYPYTPRKEDELELRKGEMFLVFERCQDGWYKGTSMHTSKIGVFPGNYVAPVTRAVTNASQAKVSMSTAGQASRGVTMVSPSTAGGPTQKPQGNGVAGNPSVVPTAVVSAAHIQTSPQAKVLLHMSGQMTVNQARNAVRTVAAHSQERPTAAVTPIQVQNAACLGPASVGLPHHSLASQPLPPMAGPAAHGAAVSISRTNAPMACAAGASLASPNMTSAMLETEPSGRTVTILPGLPTSPESAASACGNSSAGKPDKDSKKEKKGLLKLLSGASTKRKPRVSPPASPTLDVELGAGEAPLQGAVGPELPLGGSHGRVGSCPTDGDGPVAAGTAALAQDAFHRKTSSLDSAVPIAPPPRQACSSLGPVMNEARPVVCERHRVVVSYPPQSEAELELKEGDIVFVHKKREDGWFKGTLQRNGKTGLFPGSFVENI
With B3, the negative fold change in peptide counts relative to TgWIP^WT came to 2 fold in test [1], 2 fold in test [2], 10 fold in test [3] and 6 fold in test [4].

B4: Arhgef7, endogenous in murine DC2.4 cells (natural protein)
chain: MNSAEQTVTWLITLGVLESPKKTISDPEVFLQASLKDGVVLCRLLERLLPGTIEKVYPEPRNESECLSNIREFLRACGASLRLETFDANDLYQGQNFNKVLSSLVTLNKVTADIGLGSDSVCARPSSHRIKSFDSLGSQSSHSRTSKLLQSQYRSLDMTDNTNSQLVVRAKFNFQQTNEDELSFSKGDVIHVTRVEEGGWWEGTHNGRTGWFPSNYVREIKPSEKPVSPKSGTLKSPPKGFDTTAINKSYYNVVLQNILETEHEYSKELQSVLSTYLRPLQTSDKLSSANTSYLMGNLEEISSFQQVLVQSLEECTKSPEAQQRVGGCFLSLMPQMRTLYLAYCANHPSAVSVLTEHSEDLGEFMETKGASSPGILVLTTGLSKPFMRLDKYPTLLKELERHMEDYHPDRQDIQKSMTAFKNLSAQCQEVRKRKELELQILTEPIRSWEGDDIKTLGSVTYMSQVTIQCAGSEEKNERYLLLFPNLLLMLSASPRMSGFIYQGKLPTTGMTITKLEDSENHRNAFEISGSMIERILVSCTSQQDLHEWVEHLQKQTKVTSVSNPTIKPHSVPSHTLPSHPLTPSSKHADSKPVALTPAYHTLPHPSHHGTPHTTISWGPLEPPKTPKPWSLSCLRPAPPLRPSAALCYKEDLSKSPKTMKKLLPKRKPERKPSDEEFAVRKSTAALEEDAQILKVIEAYCTSAKTRQTLNSTWQGTDLMHNHVLADDDQSSLDSLGRRSSLSRLEPSDLSEDSEYDSIWTAHSYRMGSASRSRKESAPQVLLPEEEKIIVEETKSNGQTVIEEKSLVDTVYALKDEVQELRQDNKKMKKSLEEEQRARKDLEKLVRKVLKNMNDPAWDETNL
On to B4, for which the negative fold change in peptide counts relative to TgWIP^WT in test [1] was 2 fold; in test [2] it was 3 fold and 2 fold; in test [3] it was 4 fold; in test [4], 8 fold.

B5: Brk1 (Hspc300), endogenous in murine DC2.4 cells (natural protein)
chain: MAGQEDPVQREIHQDWANREYIEIITSSIKKISDFLNSFDMSCRSRLATLNEKLTALERRIEYIEARVTKGETLT
As to B5, the negative fold change in peptide counts relative to TgWIP^WT turned out to be 3 fold in test [1], 1 fold in test [2], 4 fold in test [3] and 9 fold in test [4].
